Percent of AP2 dimerized and stoichiometry N data for one substance are collected here from paper PMC7375805.

The target in this assay is AP2 FLAP (full-length β2 subunit AP2 complex, i.e. AP2 lacking the α appendage and the α hinge) (UniProt P18484). In words: cryo-EM structure; cryo-electron tomography and subtomogram averaging of AP2 FLAP on liposomes with PtdIns(4,5)P2 and TGN38 YxxΦ lipopeptide, no clathrin, HKM2 buffer; ~9 Å.

The substance “AP2 FLAP (full-length β2 subunit AP2 complex, i.e. AP2 lacking the α appendage and the α hinge) (from UniProt P18484 1-621; P63010 1-937; P84092 1-435; P62743 1-142)” returned a percent of AP2 dimerized of 20% and a stoichiometry N of 2.

In general, stoichiometry N refers to the number of molecules, sites or subunits per partner or assembly.
